# Data reported in publication PMC7755911.
# Target: Biotinylated SARS-CoV-2 S protein RBD with a C-terminal AviTag (SARS-CoV-2) (UniProt P0DTC2)
# Assay: BLI
# Chain of NIH-CoVnb-112 (VHH) (VHH): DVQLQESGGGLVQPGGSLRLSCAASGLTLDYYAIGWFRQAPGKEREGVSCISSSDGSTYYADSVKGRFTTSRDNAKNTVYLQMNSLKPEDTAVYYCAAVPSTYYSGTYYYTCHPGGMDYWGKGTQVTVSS
substance,measurement,value
NIH-CoVnb-112 (VHH),Kd,4.9 nM
same,koff,0.000654 s⁻¹
same,kon,130000 M⁻¹ s⁻¹
